Biological target: T1, human interleukin 5 receptor encoded by cDNA clone lambda-h5R.27 (human, UniProt Q01344 21-395)
T1 sequence: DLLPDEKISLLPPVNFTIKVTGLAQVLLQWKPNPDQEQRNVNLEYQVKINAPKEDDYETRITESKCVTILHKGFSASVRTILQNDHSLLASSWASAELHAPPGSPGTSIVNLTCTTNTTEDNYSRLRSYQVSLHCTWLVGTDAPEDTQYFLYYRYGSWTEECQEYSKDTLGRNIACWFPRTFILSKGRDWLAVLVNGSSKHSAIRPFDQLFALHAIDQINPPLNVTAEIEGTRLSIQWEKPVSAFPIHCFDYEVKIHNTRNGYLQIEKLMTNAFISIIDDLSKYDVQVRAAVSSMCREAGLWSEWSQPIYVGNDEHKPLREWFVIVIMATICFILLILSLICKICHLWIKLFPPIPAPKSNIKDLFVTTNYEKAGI
Test: radioligand binding

- Kd: 0.25 nM
B1: recombinant murine interleukin 5, 35S-methionine labelled (ligand, mouse, UniProt P04401 21-133, looked up)
chain: MEIPMSTVVKETLTQLSAHRALLTSNETMRLPVPTHKNHQLCIGEIFQGLDILKNQTVRGGTVEMLFQNLSLIKKYIDRQKEKCGEERRRTRQFLDYLQEFLGVMSTEWAMEG
modifications: 35S-methionine labelled

Source: PMC2119102 (The Journal of Experimental Medicine, 1992)
